Test [1] has as its target glycophorin A associated protein (GPA) on mouse red blood cells (mouse). Description: 125I-labeled fusion injected i.v. in mice; RBC vs plasma radioactivity in blood (in vivo).
Test [2] shares this target. The test is described as follows: 125I-labeled fusion at 40 µg/ml on mouse RBCs at ~50% hematocrit in PBS/BSA or heparinated plasma, 37° C, time course.
Test [3] has the same target. The test is described as follows: 125I-labeled fusion on mouse RBCs, 1% hematocrit, saturation binding (FIG. 4C).
The target of test [4] is human red blood cells (human). The test is described as follows: 125I-labeled fusion on human RBCs, 10% hematocrit, 1 h at 37° C, gamma counting.
In test [5] the target is glycophorin A associated protein (GPA) on mouse red blood cells (mouse). The test is described as follows: 125I-labeled fusion on mouse RBCs, 10% hematocrit, 1 h at 37° C, gamma counting.
For test [6] the target is unchanged. The test is described as follows: preloaded mouse RBCs injected in mice; RBC vs plasma radioactivity (in vivo).

B1: Ter119scFv-mRNK fusion protein (protein)
chain: RSPWPGVPTSQVKLQESGGGLVQPGGSLKLSCVASGFTFRDHWMNWVRQAPGKTMEWIGDIRPDGSDTNYAPSVRNRFTISRDNARSILYLQMSNMRSDYTATYYCVRDSPTRAGLMDAWGQGASVTVLTGGGGSGGGGSGGGGSDIQMIQSPSVLSASVGDRVTLNCKASQNINKYLNWYQQKLGEAPKVLIYNTNNLQTGIPSRFSGSGSGTDFTLTISSLQPEDFATYFCFQHYTWPTFGGGTKLELKRASSSSGSSSSGAAAPKGKSEDCYVGKGVTYRGTHSLTTSQASCLPWNSIVLMGKSYTAWRTNSQALGLGRHNYCRNPDGDARPWCHVMKDRKLTWEYCDMSPCSTCGLRQYKRPQFRIKGGLYTDITSHPWQAPIFVAAAASPGERFLCGGVLISSCWVLSAAHCFLERFPPNHLKVVLGRTYRVVPGEEEQTFEIEKYIVHEEFDDDTYDNDIALLQLRSQSKQCAQESSSVGTACLPDPNLQLPDWTECELSGYGKHEASSPFFSDRLKEAHVRLYPSSRCTSQHLFNKTVTNNMLCAGDTRSGGNQDLHDACQGDSGGPLVCMINKQMTLTGIISWGLGCGQKDVPGVYTKVTNYLDWIHDNMKQ
modifications: 125I radiolabel in the binding assays
For the molecule B1, the percent associated with RBC in test [1] is 90%. The molecule further showed a 50% saturation time in test [2] of 30 min. In test [3], this molecule had a Bmax (molecules/RBC) of 80000 and a Kd of 77.9 nM. The same molecule yielded a molecules/hRBC (molecules/hRBC) in test [4] of 120. Besides, the molecules/mRBC (molecules/mRBC) in test [5] worked out at 20000. In addition, in test [6], the percent of fusion in the bloodstream associated with RBCs (one hour) is 90 % ID and the percent of fusion in the bloodstream associated with RBCs (three hours) was determined as 75 % ID.

Broadly, the Kd is a measure of binding affinity in units of concentration. A high value points to a looser complex.

(Values after patent US20100285015A1.)
